Assay results: US20190263931A1 (IMMUNOMETABOLISM DEVELOPMENT, published 2019)

B1: LM-187 (antibody, V domains shown)
VH: AVTLDESGGGLQTPGGLVSLVCKASGFGFTNYEIHWVRQAPGKGLEWVGFVSSGGAYADYAPAVKGRATITRDNGQSTVRLQLVNLRAEDTGTYYCTRAPCGSWCGWGYTGVDNIDAWGHGTEVIVSS
VL: ALTQPSSVSANPGGIVKITCSGGGRGSHYGWYQQKSPGSAPVTLIYANNQRPSDIPSRFSGSESGSTATLTITGVQAEDEAVYFCGGYDSGATFGAGTTLTVL
B2: MCT1 Ab1 (antibody, V domains shown)
VH: QVQLKATGPGLVQPTQTLSITCTVSGFSLTNYHLQWVRQTPGKGLEWMGFIRSSGNTEYNSEFKSRLSISRDTSKNQVFLKMNSLKTDDTGVYYCARNSWYHGTYYSPGYYVMDAWGQGASVTVSS
VL: NIHLTQSPSLLSASVGDRVTLSCKGSQNINNYLAWFQQKFGETPKLLIYNRHNLQTGIPSRFSGSGSGTDYTLTINSLQPEDVATYFCYQYSDGYTFGAGTKLELK
notes: also called INX310; Rat Anti-MCT1 antibody

How the values were obtained:
[1] = target: T1, human MCT1 (monocarboxylate transporter 1, SLC16A1) (human, UniProt P53985 1-500); assay: flow cytometry, MFI on 293T WT (MCT1+ 293) cells, full Mabs
T1 construct: Multipass membrane transporter; also called human MCT1 protein
T1 sequence: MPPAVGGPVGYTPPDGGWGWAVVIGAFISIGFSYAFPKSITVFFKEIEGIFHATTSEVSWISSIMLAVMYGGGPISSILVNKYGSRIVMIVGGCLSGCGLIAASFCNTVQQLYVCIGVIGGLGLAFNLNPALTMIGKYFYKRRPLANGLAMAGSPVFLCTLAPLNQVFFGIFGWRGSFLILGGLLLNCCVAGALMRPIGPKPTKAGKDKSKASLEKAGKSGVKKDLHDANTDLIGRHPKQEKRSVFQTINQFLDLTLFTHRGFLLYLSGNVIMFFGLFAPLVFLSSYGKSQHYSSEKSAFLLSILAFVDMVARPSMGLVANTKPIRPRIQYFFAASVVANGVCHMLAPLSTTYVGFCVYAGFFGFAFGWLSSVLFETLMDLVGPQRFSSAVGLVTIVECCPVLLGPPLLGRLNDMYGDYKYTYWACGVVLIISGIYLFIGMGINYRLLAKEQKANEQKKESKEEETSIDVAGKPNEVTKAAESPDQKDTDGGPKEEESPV

[2] = target: T1, human MCT1 (monocarboxylate transporter …); assay: Kinetic Exclusion Assay (KinExA)
rat MCT1 = target: T2, rat MCT1 (rat, UniProt P53987 1-494); assay: flow cytometry, rat PBMC (live gate), resting and stimulated
T2 construct: whole, on cells; also called rodent MCT1
T2 sequence (looked up): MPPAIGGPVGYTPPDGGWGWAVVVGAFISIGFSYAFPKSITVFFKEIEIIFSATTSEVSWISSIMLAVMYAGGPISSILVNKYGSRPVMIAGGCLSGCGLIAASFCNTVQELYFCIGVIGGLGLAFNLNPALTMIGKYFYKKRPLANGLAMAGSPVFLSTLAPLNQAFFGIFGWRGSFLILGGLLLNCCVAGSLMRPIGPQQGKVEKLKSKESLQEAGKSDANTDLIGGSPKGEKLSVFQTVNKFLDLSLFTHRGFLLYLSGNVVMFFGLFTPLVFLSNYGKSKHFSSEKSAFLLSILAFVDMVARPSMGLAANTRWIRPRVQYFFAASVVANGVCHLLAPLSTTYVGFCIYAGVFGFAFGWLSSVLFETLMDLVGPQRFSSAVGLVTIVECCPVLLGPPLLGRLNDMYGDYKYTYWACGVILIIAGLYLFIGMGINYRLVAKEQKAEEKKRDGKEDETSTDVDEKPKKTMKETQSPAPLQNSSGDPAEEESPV

Row | Binder | binding result [1] | Kd [2] | binding result (rat MCT1)
1 | B1 | no binding | – | –
2 | B2 | – | 6.3 nM | no binding
